In the DeepSol protein solubility set:

experiment: soluble on expression in E. coli; label from the status in PepcDB or PDB records

Sequence	soluble on expression in E. coli
MNATINDDDIDDVKKALDHATQAAHKAAAELTAKLRSDFVEYGNGGTAGQVLIHIYGPGLIYGFSAFPVQIRLEIPNQPVPFNKVHITEVTAYVIDENNRTYWTRVWNSSTFRQGGYIADTLDLVTVMKAPDPLVYQIRDAIVTGQISRELYDKIWNTSTTHFEIRVIVKGYQEAWKTDSSVSNQSSCPSDGHWYEDACWVHDKDIDFTLKAETTTAWGHVTGTNDVATIDGGMLGSLPIKFLQSLDLSGKWVLYQNKYAGALSDFIIITAASPVHVLNSTAMYKFLITPNPGYFQPANPKISDEYRFVTLRVIEGGRMELADTTTGHIGDLTEPTFFGLTAHYTDAPGTLDYHALGLVYAYVERDDGVKIPIWLAAEPMISVLSNTYTVMKDQDVKNLIDLYKKKDREKINATTKAMINSLQEKIDEAEQLLAKAKGMNNENAIEYAQGAIDEYKAAINDLQKAAQQDDYQMFLNYLNAAKKHEMAGDYYVNAARKALNGDLEQAKIDAEKAKEYSNLAKEYEPG	soluble
FAKQKKESVISAISTVNPQELKVPSSNLTTALAGRMSGLIAFQTTGEPGKDNAQFFVRGATTFGYKKDPLILIDNIELSTDDLARLNVDDIAQFSIMKDATATALYGARGANGVILVTTKQGVAG	not soluble
MNPVKNRSEVLFIYDVKWANPNGDPLDENRPRFDEETSRLFVTDVRLKRTVRDYLAECYDETLWVTGEAVVPEDRVKELGIKDVNDACQKCIDIRLFGAVIPQSKKGAMESSITGPVQFRYGTSLHRVKLMTIQGTAAFATENSKQRSFREDQVVPYALIAFYGVINQNSAKFTGLTEEDVSKLLEGIWMGTKNLITRSKMEHNPRLLMRVVYKEGVNYHSGELDYLVKVVSEKEDEEIRDISELKLDVTELKQVLESLKDKIERIEYSVDNRLKLAENGEEKPFEEIFGGFQLVKLEW	not soluble
MKMADAKQKRNEQLKRWIGSETDLEPPVVKRKKTKVKFDDGAVFLAACSSGDTEEVLRLLERGADINYANVDGLTALHQACIDDNVDMVKFLVENGANINQPDNEGWIPLHAAASCGYLDIAEYLISQGAHVGAVNSEGDTPLDIAEEEAMEELLQNEVNRQGVDIEAARKEEERIMLRDARQWLNSGHINDVRHAKSGGTALHVAAAKGYTEVLKLLIQARYDVNIKDYDGWTPLHAAAHWGKEEACRILVENLCDMEAVNKVGQTAFDVADEDILGYLEELQKKQNLLHSEKREKKS	soluble
GPGSMIEADVIRLNMEVEAAAARNADLSREVARLREELANSGLHNMDRTLVITEGTQTDSGMLREVALDLDDILFEVSELLFRLYPASSLDLSVRRDAQSSQLNDLSQRCLREVRSLKAAWEMKLDGYNQFISNIQRSQVDYHRSLDSKECQLRRKQQECDVLVGENARLSTLCSELESQLKTTQEAATRAEEQVGRLLQQTADLEAERRRLLDREAAMANTLVALRAECAFNPWSSLVGVKEAATTIESNGQLPSVREQAVAVTKAHIKPPGAVSASDVAMAFQGLDLDGQLPHMCVEPESVVDYYCKVKHSSPTRSLM	soluble
MGDVAGMAYLDSMSNEKVWFGYTLKEAQAQQIGLGLDLKGGMNVILKLNASDLLRNLSNKSLDPNFNKALENAAKSTEQSDFIDIFVKEYRKLDPNGRLAVIFGSGDLRDQITAKSTDADVVRLLKEKYNSAVEASFNVLRARIDAFGVVAPNLQRLEGQGRILVELPGVKDPERVRTLLQRSANLQFWRTYKFEEVSGDLIAANDRLSELAMNNTDATPETEPATTDSVAATADSAAVQAVADSATVAQKEAKDATRKDALFSLLTPVNRGGAVVGVARRANMAQISEMLQQAHDLKVTREDVLFLWGAKAIEDPETKKETDLYELYAIRTNRTGDPDLGGDVVTSAKSDIQNDFGRSEPIVSMTMNEEGARKWARITKDNVGRAIAIVLDGVVYSAPNVNDEITGGRSQISGHFTVEEAGDLANVLNSGKMDATVSIEQENVIGPTLGAESIKA	not soluble
MRKGCFGLVSLVLLLLVGCRSHPEIPVNDEQSLVMESSLLAAGISAEKPFLSTSDIQPSASSTLYNERQEPVTVHYRFYWYDARGLEMHPLERPRSVTIPAHSAVTLYGSANFLGAHKVRLYLYLLEHHHHHH	soluble
MGSDKIHHHHHHYYLIVSQLLGDTASVKLLVPPGANPHLFSLKPSDAKTLEEADLIVANGLGLEPYLEKYREKTVFVSDFIPALLLIDDNPHIWLDPFFLKYYIVPGLYQVLIEKFPEKQSEIKQKAEEIVSGLDTVIRDSFKALLPYTGKTVVMAHPSFTYFFKEFGLELITLSSGHEHSTSFSTIKEILRKKEQIVALFREPQQPAEILSSLEKELRMKSFVLDPLGVNGEKTIVELLRKNLSVIQEALK	not soluble
MYLTKEEELALSGEYGPAIQKAMEILVALGDIYNADRLIPIKSAQIAGVSYKNIGDEGIEFLRDFVEAGAKVSVYTTLNPAGIGDEDFMEKQAEIIELYRKMGVEITSTCTPYYGPNLPKYGDHLAWSESSAVIFANSVLGARTNREGGPSSLAAAIVGKTPNYGLHLEENRKATHIIEVKDKLKSRTEYSLLGYKIGEIVENGVPYIRGIAPTTEDLKALGASMAASGGVGLYHVEGSTPEWRGAIVDKIEKIEIGRKDLEDVRQRFSVDWGDVDIILLGCPHASLREIKEIAELLRMRDKPLKIPLFITVSRGIKALADYLGYTEIIERYNGKLLPDVCLVVSPIKEWYSGVATDSGKAAFYLKSFGLKVLLDTTENIIMGAPLEHHHHHH	not soluble
MANSNTQRMGTGSAILPARRRRATPRRLPKRAAHHYTPRVFSAIEPENSPMLKRSLALAAGIALSLSAALAHAETLKELKVSAIPDEAPTELLRKFKPLGAYLEKQLGMPVKFVPVADYAGVVEALAADRLDMAWLGGFTFVQARLKTGNAIPLVQREQDQQFTSKFITADPQVKSLQDLKGKTFAFGSVSSTSGSLMPRYFMQKDGIVPEQFFSRVAYSGAHDATVAWVQAGKVDAGVLNASVWQKLVDSGKVDTAKVKVFATTPTYYDYNWTVRGNLDPALAEKIKQAFLALDPAKPADKEILDLQAASRFIETNPDNYKGIEESARAAGLLK	not soluble
MNKEEQYLLFALSAPMEILNQSCKPAHDSPKMYTGIKEFDLSSSWGINNRDDLIQTIYQMTDDGHANDLAGLYLTWQRSSPEEWKALIAGGSERGLIYTQFVAQTAMCCGEGGIKAWDYVRMGFLSRAGVLNNWLTEEESLWLQSRVYARAHHYYHSWMHYFSAYSLGRLYWQSSQCEDNASLREALTLYKYDSAGSRMFEELAAGSDRFYATLPWQPLTVQPECPVTLKDVSDL	not soluble
MGSDKIHHHHHHMRKFKIPNMGALVAFEAAARHESFTHTAKELFLTESAVSRQIATLEASLGVRLFARVKQRVVLTRAGKLYGTQVRRALEALDRDTLSIIAHGSGGGYLELAVLPTFASHWLIPRIKSFYDRTPDVRVNMGSRTDLFSFEDTHFEAAIHYGKPTWPGTSSDYLFGEEVVPICSPALLDGPVERVEDLLAYPLLHSTTRPGAWAQWFETHGVEDIRTMQGVRYELHTMLISAAAAGLGIALVPKFFVEEQLQQLGLVVPCDAATVGDSAYYLVYPTELSHSKPLESFRAWLLEQASAYAAPGRDGEEDDLDAEDDEDVE	not soluble
MSLAAGFAPLADIPVGPDYVIGPGDRIILNLWGSAEGTHELEVNRSGEIVLPRVGSVKVWGITFERLPEVLKTHLSKIYKNFDLNVTMGKLRVIKVYVVGEVKMPGDYNLSPLSTLINALAASGGPLKTGTLRNIKIKRGGKVVETVDLYDFFLKGDKGKDIRLQPGDTIFVPVIGRVAGIAGNVKRPAIYELKDEKNLGDLVELAEGFLPTGYLQRVQITRVDAHDKRMVADFNIDPKGAGEGHHHHHH	not soluble
MGSDKIHHHHHHMKRRPTINDVAKLAGVSISTVSRYLKDPSQVSEKLGERIREAIKKLGYKPNKIAQGLRTGDSKMIGFIVPDITNPAFLTIVKGAEDFLRKKGYSFIIGGTDHKSKDEVVILESFIFHNVDGVIVTCTGYENKALKELIERYHLKLVFVDRRYPGIDAPYIGVDNFGGVARMVDYLVETGHRSFAYLCGDMTSTAKERLEGFLDRMKKYKIKDYQVLYGEFTFESGYKLTKRLSKIPDAIIAGNDLMAFGVIEALKERGLVVPEDVSVTGFDDMFFSKYYKPSLTTVRQDLYEMGKQAGKVLFALISGKKIRKKEYILPTEIVIRDSVKERRA	not soluble
